The values that follow are results of earlier work, collected in article PMC12172581.

The data set has as its target Nterm1 (UniProt position 672, SEVKMDAEFRH). Kind of data set: potentiometry. The settings on record: apo (metal-free) peptide.

Regarding “Amyloid-beta peptide (Abeta1-40, as tabulated) (Homo sapiens)”, the pKa is on record as 8.0.

A word on the pKa: it is the pH at which an ionisable group is half protonated.
